{"source": "patent US20020049303A1", "molecular_target": "recombinant memapsin 2 (M2pd), auto-activated from pro-M2pd at pH 4.0 (human) (UniProt P56817)", "sequence (P56817 25-419 limits assumed)": "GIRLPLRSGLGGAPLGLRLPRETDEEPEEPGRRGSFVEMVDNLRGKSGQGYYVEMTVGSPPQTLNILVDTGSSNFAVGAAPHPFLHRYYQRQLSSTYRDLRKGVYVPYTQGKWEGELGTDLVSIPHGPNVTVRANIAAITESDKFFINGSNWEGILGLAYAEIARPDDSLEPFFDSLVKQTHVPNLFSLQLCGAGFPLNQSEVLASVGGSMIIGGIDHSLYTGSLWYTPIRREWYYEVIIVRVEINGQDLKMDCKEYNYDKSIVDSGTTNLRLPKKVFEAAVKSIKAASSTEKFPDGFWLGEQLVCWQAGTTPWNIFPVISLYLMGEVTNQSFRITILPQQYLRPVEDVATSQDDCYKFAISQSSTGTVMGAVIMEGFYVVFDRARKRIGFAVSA", "test": "cell-based or functional assay", "data": [{"substance": "Pepstatin A (peptide)", "values": [{"measurement": "inhibition of M2pd activity (IC50)", "value": 300, "unit": "µM"}]}]}
